The assay concerns the target BF520 Env 637K (HIV-1).

Substance PGT151 (antibody) had a maximum percent neutralization, TZM-bl pseudovirus neutralization by PGT151 of 59%.
